Data as given in patent US12551573B2, “Compositions and methods for the targeting of PCSK9” (Scribe Therapeutics Inc., priority 2022, dated 2026).

Test system: HBEGF locus
Assay type: cell-based, human
Details: high-throughput screen of dXR repression of the HBEGF gene; change in abundance of each domain in the library before and after diphtheria toxin selection

Molecule	Log2 (fold change)
DOMAIN_9960 (protein, listed as Octodon degus) AVTMEDVTVTFTNEEWALLNPAQKRLYGDVMWETFRTISAIGRTWDSQQMEEEYKNYLRNLSNEEVAKCCRYTTFNQHENI	3.4751
DOMAIN_10277 (protein, listed as Dipodomys ordii) SNKLVSFDDVAVEFSWEEWQELDISQRTLYRDVMLETYSMLVSLGHTGPKPQLIVKLEQDEESYMREASDKNFSDVQKMKH	2.8257

Same assay, conditions: repressor domain in dXR, repression of the HBEGF gene; abundance of domain in library after vs before diphtheria toxin selection

Molecule	Log2 (fold change)
DOMAIN_9541 (protein, listed as Dipodomys ordii) SQGLVTFEDVAVYFSLEEWERLNVEQRALYQEVMQGNYGILVSLGYPIPKPDLIFRLEQGEEPWVPDSPHPEEGDIVTGVY	2.8442
DOMAIN_9329 (protein, listed as Peromyscus maniculatus) NAVTYNDVHVDFTQEEWALMDPSQRNLYKDVMVETYMNLTAIGYNWEDLEVEEHCQNSLKHGRHKRPHTTEKSCEYMGCGK	4.263
DOMAIN_9489 (protein, listed as Dipodomys ordii) LASISFEDLAVTFTEEEWEHLDLGQRNLYQEVMLETYQLLVSLGDQVRLAPPTPGTPLPALPAQPRLLGLPSQPLDRRGTP	3.0215
DOMAIN_10763 (protein, listed as Mustela putorius) PKVPVSFEDVSVYFTKTEWKLLDVQQRILYKTVMLENYHHLVSLGCLSTKPHLVSWLEQGEGPWTTDIWRTPATAKTQTEG	2.5924
DOMAIN_8460 (protein, listed as Peromyscus maniculatus) MNAVTYDDVHVDFTWDEWALLDPSQKNLYKNVMLETYRNLTAIGYKWEEHNINEKFQRSRRNRRHERSHTGEKSYECNQCG	3.1352
DOMAIN_9303 (protein, Marmota monax) FKGPVTFKDVTVEFTKEEWKLLTPAQRTLYKDVMLENYNHLVSVGYRVSKPNLVFKLKQGKEPWVLEVEFPRRRCPEELWN	2.5344
DOMAIN_9706 (protein, listed as Octodon degus) SPVLVSFDDVFVSFTREEWQVLDNAQRALYGDVMLETYRSLVLLGQCITKPEVIFKLEQGVEPWTGGEPHNQSPPDVQEVD	2.821
DOMAIN_8712 (protein, listed as Mesocricetus auratus) PADRDAVTYDDVHIGFTQEEWVLLNPSQKSLYKDVMLDTYRNLTAIGYRWQDHNIEEHCENSRRHRRKFSCTTKPYESLQN	2.7776
DOMAIN_9617 (protein, listed as Mesocricetus auratus) LQDSVTFKDVAVDFSQEEWERLNPAQRSLYRTVVLENYWNLVSVGACVSKSHLISLLEHGKAPWDMRGEVTESTSQDGESV	2.4034
DOMAIN_8862 (protein, Marmota monax) TLGLLSFNDVSLEFSWEEWQLLDSAQRYLYREVILENYSNLLSVGYHGTKPDLIFRLEQGEEPWILNAKMSTQNCPEVWED	2.3521
DOMAIN_9141 (protein, listed as Mus caroli) LNSAVTYDDVNVNFTREEWALLDSSQKSLYKDVMLETYRNLTAIGYNWEGHNIEEHCQSSRRHARTHKRTHTGEKSYECDQ	3.035
DOMAIN_9119 (protein, listed as Mesocricetus auratus) FQNSLTFDDVAVDFTQEEWVLMDQTQRDLYREVMLENYQNLFSAGCEITKPSLISWLEEDLQIGQREDFQEWEMQDTLREQ	2.2985
DOMAIN_10974 (protein, Chelonia mydas) AQMLVTFEEVAVYFTQGQGALLGPAQRALYRDVMQENYEMVTSLGFSLPKPELISRLERGEEPWVPDLQACEKRESLRGAR	2.6444
DOMAIN_8982 (protein, listed as Mesocricetus auratus) MGAVTYDDVHINFTQEEWALLNPSQKRLYKDVMHDTYSNLTATGYSLEDHYIEEHCQSSRRCRRHLQRHKKVHIGEKPYES	3.1585
DOMAIN_10359 (protein, Delphinapterus leucas) AQGLMAFEDVAVYFSREEWGLLDAAQRALYRRVMLENFTLLASLGLSVSRPHVVIQLECGKEPWVLNGTDVTLARNAQRRP	2.9199
DOMAIN_10612 (protein, Vicugna pacos) ALESVTFRDVAVFFSRDEWLHLNPAQRALYREVMLDNYSALLSLGILFSKPKVILQLEQGEDPWMVENGVSQSACLGWESL	2.4997
DOMAIN_9559 (protein, listed as Mus caroli) MGLVSFEDIAVYFNLEEWQDLDTAQRTLYRDVMLETYSSLVFLDPCIAKPKLIFNLERGFGPWSLAEASSRSLPGVHNVST	3.327
DOMAIN_10807 (protein, listed as Erinaceus europaeus) SQASVSFKDVTVEFTQDEWRLMSSAQRTLYREVMLENYSHLISMGYCSTKPELIFALEQKDFRESILERESLSTIPPEDFQ	3.5237

Molecule	Log2 (fold change)
DOMAIN_10057 (protein, listed as Mus musculus) MDALTFDDVHVHFTREEWSLLDPSQKRLYKDVMLEIYKNLTAIGYKWKDHNVGEHSQNDRRYGRHERSPAGENHNEYTQCD	2.2961
DOMAIN_9332 (protein, listed as Peromyscus maniculatus) TENAVTYDDVHVGFTWEEWALLDPSQKNLYKDVMLDTYRNLTTIGYSWEGHNIEEHFQSSRRHERHKRSDTGENSSVYTQC	3.9002
DOMAIN_9993 (protein, listed as Rattus norvegicus) DVVTYEDVHVNFTQEEWALLDPSQKRLYKVVMLETYKNLSAIGYIWEDHTIEQHFQSSRSHGRHKRHRTGEQPSELIQHGK	2.7601
DOMAIN_8492 (protein, listed as Mus musculus) RERLVSFEDVTVDFSQEEWRRLDSVQRHLYQDVMLEIYSHLLAVGYPVPSPGAIFRIKKRKEARTGEAKLPHPCWCQEVES	3.3107
DOMAIN_8555 (protein, listed as Cricetulus griseus) MAFEDVAVYFSQEEWVFLDAAQRALYRHVMLENFALVDSIGLSISRPRVIIQLQRGEEPWVPNRTNTGPGRGTRRRPSLGS	3.2852
DOMAIN_8881 (protein, listed as Cricetulus griseus) MAFEDVAVYFSQEEWVFLDAAQRALYRHVMLENFALVDSIGLSISRPRVIIQLQRGEEPWVSNRTNTGPGRGTRRRPSLGS	3.743
DOMAIN_9217 (protein, listed as Mesocricetus auratus) MAFEDVAVYFSQEEWMFLDAAQRALYRHVMLENFALVDSIGLSVSRPRVIIQLQRGEEPWVPNRTNPGPGRSTCRRPSLGS	3.8919
DOMAIN_9716 (protein, listed as Mus caroli) PKVTVSFEDVSVYFTKTEWKLLDLKQRNLYKQVMLENYSHLVSVGFAFSKPNLVSQLERGEKPWIRDDRMESAARSRAGNR	2.9009
DOMAIN_11049 (protein, listed as Neophocaena asiaeorientalis) PQGCAISEDVFVYFSREEWVLLDEDQRLLYRDVMLENFALLASLGIASSRSHLVTQLEQGEEPWMPAQVDMTPATEKEAQK	2.7072
DOMAIN_10573 (protein, listed as Cervus elaphus) SHTLVTFKDILVNFTREEWKLLDTAQQIMYKDVMLENYRNLVSLGHQLPKPDVILRLEKGEEPWLVEKEIHQETHPDLETP	2.4077
DOMAIN_11071 (protein, listed as Chrysochloris asiatica) SLEQVSFKDVCVDFTQEEWYLLDPAQKILYRDVILENYSNIVSVGHCGTKPEVIFKIEQGEEPWVLGEGFSSLQHPERNWK	3.1268
DOMAIN_8545 (protein, listed as Rattus norvegicus) APLPLTFEDVAIYFSEQEWQHLETWQKELYKQVMRTNYETLISLDNGLPKPELISWMELGRENFGSWGEGQKVDRGIRCSV	3.1044
DOMAIN_8746 (protein, listed as Mesocricetus auratus) SQGLVTFGDVAVVFSQEEWEWLSSEQRSLYWRVMLDNYRNLASLGLCASKPDMIALLEQGKDPCVLKRKTARGLRPDLEAV	3.317
DOMAIN_10241 (protein, listed as Octodon degus) PTAPVAFSDLTICFSQEEWGWLSPTQKLLYEEVMLENYQNLVSVGLCTRKPHIITLLEKGKDPWIAEPLRKRGGPDPASRY	3.5766
DOMAIN_8618 (protein, listed as Mesocricetus auratus) MESVSFEDVAVNFTPEEWALLNSSQKRLHRDVMQENFRNLAAIAKNQEDPTLEDDYEYLRKILPFAVQTGYRLCENQDYAE	2.6363
DOMAIN_9858 (protein, listed as Mesocricetus auratus) MDAVTYDDVHINFTLEEWALLNPSQKSLYKDVMLDTYRNLTAIGYSWDDHNIEEICQSSRSHRRHLQRHAKINTGEKPYGS	3.0047
DOMAIN_8742 (protein, listed as Peromyscus maniculatus) MGSVSFEDISLDFTWDEWQDLDSAQRTLYRDVMLENYSSLMFLGHCTTKPELIFKLEHGFGPWSLAEASIQSLPGVHKMTV	2.3354
DOMAIN_8953 (protein, listed as Mus caroli) MNGMTYDDVHVNFTGEEWALLSPSQKRLYKDVMLETYRNLTAIGYSWEDRNIEEHFQRSRRHGRHERSHTGENPSVYTQCN	2.5941
